From the supplement of paper PMC7125110
± gives the standard error. For some assays here: This sample holds only a part of the variants without activity.

B1: glmS ribozyme (parent)
chain: AUAAAAGCGCCAGAACUACAGAAAUGUAGUUGACGAGGAGGAGGUUUAUCGAAUUUUCGGCGGAUGCCUCCAAA

What was measured:
Details in all cases: with glucosamine-6-phosphate
glucosamine-6-phosphate [1] = variants of: B1; assay: kcat; higher = faster cleavage; RNA array
Summary of the method: (§1)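 Sequenced MiSeq chips were the platform: E. coli RNA polymerase transcribed barcoded ribozyme variants on them in situ, and a hybridised Cy3 probe tracked these at 37 °C. After glucosamine-6-phosphate (40 μM to 10 mM) in HEPES/KCl/Mg(OAc)2 buffer was flowed in, tiles were imaged over ~14 h. Signals normalised to baseline and to non-cleaving reference variants were reduced to per-tile medians and fit to one- or two-exponential decays to obtain kobs. kcat and KM were derived through weighted Michaelis–Menten fits across concentrations.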

glucosamine-6-phosphate [2] = variants of: B1; assay: KM; higher = weaker cofactor use; RNA array
Summary of the method: as §1

glucosamine-6-phosphate [3] = variants of: B1; assay: self-cleavage kobs at 2500 uM GlcN6P; higher = faster cleavage; RNA array
Summary of the method: as §1

glucosamine-6-phosphate [4] = variants of: B1; assay: self-cleavage kobs at 10000 uM GlcN6P; higher = faster cleavage; RNA array
Summary of the method: as §1

glucosamine-6-phosphate [5] = variants of: B1; assay: self-cleavage kobs at 40 uM GlcN6P; higher = faster cleavage; RNA array
Summary of the method: as §1

glucosamine-6-phosphate [6] = variants of: B1; assay: self-cleavage kobs at 640 uM GlcN6P; higher = faster cleavage; RNA array
Summary of the method: as §1

glucosamine-6-phosphate [7] = variants of: B1; assay: self-cleavage kobs at 160 uM GlcN6P; higher = faster cleavage; RNA array
Summary of the method: as §1

AUAAAAGCGUCAGAACUACAGAAAUGUAGUUGACGAGGAGGAGGUUUAUCGAAUUUUCGGCGGAUGCCUUCAAA [C10U C70U] was tested, and the kcat (glucosamine-6-phosphate [1]) was 2.53e-05 ± 1.3e-06 s⁻¹, the KM (glucosamine-6-phosphate [2]) was 777 ± 240 µM and the “self-cleavage kobs at 2500 uM GlcN6P” value (glucosamine-6-phosphate [3]) was 1.83e-05 ± 8e-06 s⁻¹. For the same variant, the “self-cleavage kobs at 10000 uM GlcN6P” value (glucosamine-6-phosphate [4]) was 2.38e-05 ± 7e-06 s⁻¹.

For AUAAAAGCGCUAGAAUUACAGAAAUGUAGUUGACGAGGAGGAGGUUUAUCGAAUUUUCGGCGGAUGCCUCUAAA [C11U C16U C71U], the kcat (glucosamine-6-phosphate [1]) was 0.000649 ± 0.00014 s⁻¹, the KM (glucosamine-6-phosphate [2]) was 1100 ± 540 µM and the “self-cleavage kobs at 40 uM GlcN6P” value (glucosamine-6-phosphate [5]) was 4.58e-05 ± 1.8e-05 s⁻¹. For the same variant, the “self-cleavage kobs at 640 uM GlcN6P” value (glucosamine-6-phosphate [6]) was 0.000215 ± 4.6e-05 s⁻¹, the “self-cleavage kobs at 2500 uM GlcN6P” value (glucosamine-6-phosphate [3]) was 0.000443 ± 0.00011 s⁻¹ and the “self-cleavage kobs at 10000 uM GlcN6P” value (glucosamine-6-phosphate [4]) was 0.000614 ± 0.00012 s⁻¹.

AUAAAAGCGCCAAAACUACAGAAAUGUAGUUCACGAGGAGGAGGUUUAUCGAAUUUUCGGCGGAUGCCUCCAAA [G13A G32C] was tested, and the kcat (glucosamine-6-phosphate [1]) was 0.00056 ± 0.00021 s⁻¹, the “self-cleavage kobs at 640 uM GlcN6P” value (glucosamine-6-phosphate [6]) was 6.56e-05 ± 8.7e-06 s⁻¹ and the “self-cleavage kobs at 2500 uM GlcN6P” value (glucosamine-6-phosphate [3]) was 0.000136 ± 1.8e-05 s⁻¹. The “self-cleavage kobs at 10000 uM GlcN6P” value (glucosamine-6-phosphate [4]) was 0.000388 ± 5.3e-05 s⁻¹.

With AUAAAAGCGCCAGAACUACAGAAAUGUAAGUGACGAGGAGGAGGUUUAUCGAAUUUUCGGCGGAUGCCUCCAAA [G29A U30G] the kcat (glucosamine-6-phosphate [1]) was 0.00554 ± 0.0022 s⁻¹, the “self-cleavage kobs at 40 uM GlcN6P” value (glucosamine-6-phosphate [5]) was 0.000159 ± 2.5e-05 s⁻¹ and the “self-cleavage kobs at 160 uM GlcN6P” value (glucosamine-6-phosphate [7]) was 0.000288 ± 5.9e-05 s⁻¹. The “self-cleavage kobs at 640 uM GlcN6P” value (glucosamine-6-phosphate [6]) was 0.00125 ± 0.00029 s⁻¹, the “self-cleavage kobs at 2500 uM GlcN6P” value (glucosamine-6-phosphate [3]) was 0.0021 ± 0.00068 s⁻¹ and the “self-cleavage kobs at 10000 uM GlcN6P” value (glucosamine-6-phosphate [4]) was 0.00513 ± 0.00085 s⁻¹.

For AUAAAAGCGCCUGAACUACAGAAAUGUAGUUGACGAGGAGGAGGUUUGUCGAAUUUUCGGCGGAUGCCUCCAAA [A12U A48G], the kcat (glucosamine-6-phosphate [1]) was 0.000185 ± 3.6e-05 s⁻¹, the “self-cleavage kobs at 160 uM GlcN6P” value (glucosamine-6-phosphate [7]) was 2.8e-05 ± 1.2e-05 s⁻¹ and the “self-cleavage kobs at 640 uM GlcN6P” value (glucosamine-6-phosphate [6]) was 9.16e-05 ± 1.3e-05 s⁻¹. The “self-cleavage kobs at 2500 uM GlcN6P” value (glucosamine-6-phosphate [3]) was 0.000246 ± 3e-05 s⁻¹ and the “self-cleavage kobs at 10000 uM GlcN6P” value (glucosamine-6-phosphate [4]) was 0.000156 ± 1.5e-05 s⁻¹.

In the case of AUAAAAGCGCCAGAACUACAGAAAUGUAGUUGACGAGGAUGAGGUUUAGCGAAUUUUCGGCGGAUGCCUCCAAA [G40U U49G], the kcat (glucosamine-6-phosphate [1]) is reported as 8.53e-05 ± 3.1e-05 s⁻¹, the “self-cleavage kobs at 2500 uM GlcN6P” value (glucosamine-6-phosphate [3]) is reported as 9.77e-05 ± 2e-05 s⁻¹ and the “self-cleavage kobs at 10000 uM GlcN6P” value (glucosamine-6-phosphate [4]) is reported as 6.94e-05 ± 1.1e-05 s⁻¹.

In the case of AUAAAAGCGCCAGAACUACAGAAAUGUAGUUGACGAGGAGGAGGUUUAUCGAAUGUCCGGCGGAUGCCUCCAAA [U55G U57C], the kcat (glucosamine-6-phosphate [1]) is reported as 0.000252 ± 3.3e-05 s⁻¹, the KM (glucosamine-6-phosphate [2]) is reported as 4830 ± 1100 µM and the “self-cleavage kobs at 40 uM GlcN6P” value (glucosamine-6-phosphate [5]) is reported as less than 1e-05 s⁻¹. For the same variant, the “self-cleavage kobs at 640 uM GlcN6P” value (glucosamine-6-phosphate [6]) was 3.51e-05 ± 1e-05 s⁻¹, the “self-cleavage kobs at 2500 uM GlcN6P” value (glucosamine-6-phosphate [3]) was 7.83e-05 ± 1.6e-05 s⁻¹ and the “self-cleavage kobs at 10000 uM GlcN6P” value (glucosamine-6-phosphate [4]) was 0.000174 ± 2.6e-05 s⁻¹.

For AUAAAAGCGCCAGAAAUACAGAAAUGUAGUUGACGAGGAGGAGGUUUAUCGAAUUUUCGGCGGAUGUCUCCAAA [C16A C67U], the kcat (glucosamine-6-phosphate [1]) was 0.000302 ± 4.6e-05 s⁻¹, the KM (glucosamine-6-phosphate [2]) was 782 ± 280 µM and the “self-cleavage kobs at 160 uM GlcN6P” value (glucosamine-6-phosphate [7]) was 6.4e-05 ± 1.4e-05 s⁻¹. The “self-cleavage kobs at 640 uM GlcN6P” value (glucosamine-6-phosphate [6]) was 0.000122 ± 1.3e-05 s⁻¹, the “self-cleavage kobs at 2500 uM GlcN6P” value (glucosamine-6-phosphate [3]) was 0.000286 ± 3.2e-05 s⁻¹ and the “self-cleavage kobs at 10000 uM GlcN6P” value (glucosamine-6-phosphate [4]) was 0.000261 ± 3.1e-05 s⁻¹.

With AUAAAAGCGCCAGAACUACAGAAAUGUAGUUGACGAGGAGGAGGUUUAUCGAACUUUCGGCGGAUGCCUGCAAA [U54C C70G] the kcat (glucosamine-6-phosphate [1]) was 0.000186 ± 3.5e-05 s⁻¹, the “self-cleavage kobs at 40 uM GlcN6P” value (glucosamine-6-phosphate [5]) was 5.08e-05 ± 1.5e-05 s⁻¹ and the “self-cleavage kobs at 160 uM GlcN6P” value (glucosamine-6-phosphate [7]) was 0.000109 ± 3.8e-05 s⁻¹. For the same variant, the “self-cleavage kobs at 640 uM GlcN6P” value (glucosamine-6-phosphate [6]) was 0.000175 ± 2.3e-05 s⁻¹, the “self-cleavage kobs at 2500 uM GlcN6P” value (glucosamine-6-phosphate [3]) was 0.000139 ± 2.6e-05 s⁻¹ and the “self-cleavage kobs at 10000 uM GlcN6P” value (glucosamine-6-phosphate [4]) was 0.000325 ± 6.2e-05 s⁻¹.

In the case of AUAAAAGCGCCAGAAAUACAGAAAUGUAGUUGACGAGGAGGAGGUUUAUCGAAUUUUCGGCGGUUGCCUCCAAA [C16A A64U], the kcat (glucosamine-6-phosphate [1]) is reported as less than 1e-05 s⁻¹, the “self-cleavage kobs at 40 uM GlcN6P” value (glucosamine-6-phosphate [5]) is reported as less than 1e-05 s⁻¹ and the “self-cleavage kobs at 160 uM GlcN6P” value (glucosamine-6-phosphate [7]) is reported as less than 1e-05 s⁻¹.

In the case of AUAAAAGCGCCACAACUACAGAAAUGUAGUUGACGAGGAGGAGGUUUAUCGAAUUUUCGGCGGAUUCCUCCAAA [G13C G66U], the kcat (glucosamine-6-phosphate [1]) is reported as less than 1e-05 s⁻¹, the KM (glucosamine-6-phosphate [2]) is reported as 766 ± 350 µM and the “self-cleavage kobs at 160 uM GlcN6P” value (glucosamine-6-phosphate [7]) is reported as less than 1e-05 s⁻¹.

For AUAAAAGCGCCCGAACUACAGAAAUGUAGUUGACGAGGAGGAGGUUUAUCGAAUUUUCGCCGGAUGCCUCCAAA [A12C G60C], the kcat (glucosamine-6-phosphate [1]) was less than 1e-05 s⁻¹, the “self-cleavage kobs at 640 uM GlcN6P” value (glucosamine-6-phosphate [6]) was less than 1e-05 s⁻¹ and the “self-cleavage kobs at 10000 uM GlcN6P” value (glucosamine-6-phosphate [4]) was less than 1e-05 s⁻¹.

With AUAAAAGCGCCAGAACUACAGAAAUGUAGUUGACGAGGAGGAGGUUUAUCGAAUUUCCGGCGGGUGCCUCCAAA [U57C A64G] the kcat (glucosamine-6-phosphate [1]) was 0.000236 ± 3.1e-06 s⁻¹, the KM (glucosamine-6-phosphate [2]) was 3140 ± 87 µM and the “self-cleavage kobs at 640 uM GlcN6P” value (glucosamine-6-phosphate [6]) was 3.93e-05 ± 7.8e-06 s⁻¹. The “self-cleavage kobs at 2500 uM GlcN6P” value (glucosamine-6-phosphate [3]) was 0.000106 ± 1.3e-05 s⁻¹ and the “self-cleavage kobs at 10000 uM GlcN6P” value (glucosamine-6-phosphate [4]) was 0.000179 ± 1.7e-05 s⁻¹.

AUAAAAGCGCCCGAACUACAGAAAUGUAGUUGACGAGGAGGAGGUUUAUCGAAUUUUCAGCGGAUGCCUCCAAA [A12C G59A] was tested, and the kcat (glucosamine-6-phosphate [1]) was less than 1e-05 s⁻¹, the “self-cleavage kobs at 40 uM GlcN6P” value (glucosamine-6-phosphate [5]) was less than 1e-05 s⁻¹ and the “self-cleavage kobs at 160 uM GlcN6P” value (glucosamine-6-phosphate [7]) was less than 1e-05 s⁻¹.

In the case of AUAAAAGCGGCCGAACUACAGAAAUGUAGUUGACGAGGAGGAGGUUUAUCGAAUUUUCGGCGGAUGCCUCCAAA [C10G A12C], the kcat (glucosamine-6-phosphate [1]) is reported as 3.86e-05 ± 1.4e-05 s⁻¹ and the “self-cleavage kobs at 10000 uM GlcN6P” value (glucosamine-6-phosphate [4]) is reported as 2.24e-05 ± 9.4e-06 s⁻¹.

In the case of AUAAAAGCGCCAGAACUACAGAAAUGUAGUAGACGAGGAGGUGGUUUAUCGAAUUUUCGGCGGAUGCCUCCAAA [U31A A42U], the kcat (glucosamine-6-phosphate [1]) is reported as 0.000111 ± 8.8e-06 s⁻¹, the KM (glucosamine-6-phosphate [2]) is reported as 3380 ± 670 µM and the “self-cleavage kobs at 2500 uM GlcN6P” value (glucosamine-6-phosphate [3]) is reported as 5.06e-05 ± 1.3e-05 s⁻¹. For the same variant, the “self-cleavage kobs at 10000 uM GlcN6P” value (glucosamine-6-phosphate [4]) was 8.19e-05 ± 1.4e-05 s⁻¹.

For AUAAAAGCGCCAGAACUACAGAAAUGUAUUUGACGAGGAGGAGGUUUAUCGAAAUUUCGGCGGAAGCCUCCAAA [G29U U54A U65A], the kcat (glucosamine-6-phosphate [1]) was 0.000347 ± 8.3e-05 s⁻¹, the “self-cleavage kobs at 160 uM GlcN6P” value (glucosamine-6-phosphate [7]) was 8.02e-05 ± 2.9e-05 s⁻¹ and the “self-cleavage kobs at 640 uM GlcN6P” value (glucosamine-6-phosphate [6]) was 0.000149 ± 2.1e-05 s⁻¹. The “self-cleavage kobs at 2500 uM GlcN6P” value (glucosamine-6-phosphate [3]) was 0.000241 ± 3.4e-05 s⁻¹ and the “self-cleavage kobs at 10000 uM GlcN6P” value (glucosamine-6-phosphate [4]) was 0.000456 ± 0.00011 s⁻¹.
